Data published in patent US20230348603A1 (VERSEAU THERAPEUTICS, published 2023).
Positions count from the first letter of the chain named. Names and notes keep the numbering of the source.

B1: 1H7.C7 murine hybridoma antibody (antibody, V domains shown)
VH: EVQLVESGGGLVMPGGSRRLSCAASGFTFSDSGMYWVRQAPEKGLEWIAYISSGSDTLYYAATVKGRFTISRDNAKNTLFLQMTSLRSEDTAIYYCAKRNFYGYDVMDYWGQGTSVTVSS
VL: DIVMTQSHKFMSTSVGDRVSITCKASQDVSNVVAWYQQKPGQSPKLLIYSASYRYTGVPDRFAGSGSGTDFTFTISSVQAEDLAVYYCQQHYSTPWTFGGGTKLEIK
notes: murine IgG purified from hybridoma supernatant
B2: 9A10.C4 murine hybridoma antibody (antibody, V domains shown)
VH: EVQLVESGGALVQPGGSLKLSCVASGFSFSNCVMSWVRQSPEKRLEWVATIGSDGSYSYYQDNVKGRFTVSRDNAKNTLYLQMSSLGSEDTALYYCGRHIYGYDVVDYWGQGTSLTVSS
VL: B1 VL with S20T, Y36F, Y55F, T56G, A63T, S93D, W96L, G100T, K103T, I106L
notes: as for B1
B3: 5D2.C8 murine hybridoma antibody (antibody, V domains shown)
VH: EVKLVESGGGLVKPGGSLKLSCAVSGFTFSNSAMSWVRQTPAKRLEWVAYISISGDNTYYPDSVKGRFTISRDNAKNTLYLQMSSLRSEDTAMYYCARRGYDYDGFTHWGQGTLVTVSA
VL: DILLTQSPAILSVSPGERVSFSCRASQNIGTSIHWYQQRTNGSPRLLIKYASQSISGIPSRFSGSGSGTDFTLSINSVESEDIADYYCQQSYSWPLTFGTGTQLELK
notes: as for B1
B4: 16E03 mouse Fab (periplasmic extract) (Fab, V domains shown)
VH: QVQLQQSGAELARPGASVKMSCKASGYTFTSYTMHWIKQRPGQGLEWIGYINPSSGHTYYNQKFKDKATLTPDKSSSTAYMQLTSLTSEDSAVYYCARRIPTAYAMDYWGQGTSVTVSS
VL: EIQMTQSHKFMSTSVGDRVSITCKASQDVGTAVAWYQQKPGQSPKLLIYWASTRHTGVPDRFTGSGSGTDFTLTISNVQSEDLADYFCQQYSSYPLTFGAGTKLELK
notes: mouse Fab with C-terminal His6-c-myc tag
B5: 1C6.D6 murine hybridoma antibody (antibody, V domains shown)
VH: QVQLQQPGAEMVRPGTSVKLSCKASGYTFTSYWMHWVKQRPGQGLEWIGKIDPSHNKTHYIQKFEDKATLTVDKSSSTAYMHLNSLTSEDSAVYYCVTWDGDFLYWGQGTLVTVSA
VL: NIVLTQSPASLTVSLGQRATISCRASESVDSYGNSFMHWYQQKPGQPPKLLIYITSNLQSGVPARFSGGGSRTDFTLTIDPVEADDAATYYCQQNNEDPWTFGGGTKLEIK
notes: murine IgG purified from hybridoma supernatant; also called 1C6.D6b
B6: A2 anti-VSIG4 antibody, human IgG4 (S228P) kappa (antibody, V domains shown)
VH: QVTLKESGPTLVKPTQTLTLTCTFSGISLTTSGMGVGWIRQPPGKALEWLADIFWDDNKYYNPSLKSRLTITKDTSKNQVVLTMTNMDPVDTATYYCVRVYYKNDGYFDVWGKGTTVTVSS
VL: DIVLTQSPLSLPVTLGQPASISCRASKSVTTSGYSFMHWYQQRPGQSPRLLIYLASNLEPGVPDRFSGSGSGTDFTLKIFRVEAEDVGVYYCQQSGELPYTFGQGTKLEIKR
notes: variable regions from U.S. Pat. Publ
B7: 15C04 mouse Fab (periplasmic extract) (Fab, V domains shown)
VH: QIQLQESGPSLVRPSQTLSLTCSVTGDSITSGYWNWIRKFPGDKLEYLGYISYSGFTYYNPSLKSRISITRDTSKNQYYLQLNSVTTEDTATYYCASSYYGSSLGFPYWGQGTLVTVSA
VL: DVVMTQTPLSLPVSLGDQASISCRSSQSLVHSNGNTYLHWYLQKPGQSPKLLIYKVSNRFSGVPDRFSGSGSGTDFTLKISRVEAEDLGVYFCSQSTHVPWTFGGGTKLEIK
notes: as for B4
B8: 10E8.B6 murine hybridoma antibody (antibody, V domains shown)
VH: EVQLQQSGPELMKPGDSVKMSCKASGYTFTDYYMDWVKQSHGKSLEWIGYIYPNIDFTTYNQKFKGKATLTVDKSSNTAYMELHSLTSEDSAVYYCTRRDLPLHGSAYYFDYWGQGTTLTVSS
VL: DIVMSQSPSSLAVSAGEKVTMSCKSSQSLLNSRTRKNYLAWYQQKPGQSPKLLIYWASTRESGVPDRFTGSGSGTDFTLTISSVQAEDLAVYYCKQSYDLFTFGSGTKLEIK
notes: as for B1

Columns and labels:
[1] = biological target: T1, Human VSIG4-S-His (human, UniProt Q9Y279 20-283); assay: BLI (Octet), mouse IgG on AMC sensor, antigen 100 nM;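 note: octet Red384 biolayer interferometry with immobilized mouse hybridoma antibodies, 300 s association then 300 s dissociation at 30 °C, isotype-control reference subtraction, 1:1 global fit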
T1 construct: short isoform ECD with His tag; also called hVSIG4-S; VISG4-S-His
T1 sequence: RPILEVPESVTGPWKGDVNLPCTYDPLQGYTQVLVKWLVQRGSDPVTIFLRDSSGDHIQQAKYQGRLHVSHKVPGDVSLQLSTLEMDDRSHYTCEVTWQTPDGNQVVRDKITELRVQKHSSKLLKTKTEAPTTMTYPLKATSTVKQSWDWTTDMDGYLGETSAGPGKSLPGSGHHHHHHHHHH
Protocol: (§1) The binding affinity of murine hybridoma antibodies was determined by biolayer interferometry (BLI), using a ForteBio Octet® Red384 system. […] Biosensors were rehydrated prior to the assay in kinetics buffer for 10 minutes and then equilibrated in kinetics buffer for 60 seconds. Antibody was then immobilized for 300 seconds followed by a 120 second baseline wash in fresh kinetics buffer, 300 second analyte association, and 300 second dissociation in the same buffer wells as the baseline wash step. All assay steps occurred at 30° C. with an acquisition rate of 5.0 Hz. Processing parameters included reference subtraction, with mouse IgG1 or mouse IgG2a used as an isotype control for reference sensor subtraction. Y-axis data was aligned to the average baseline step for the last 5 seconds and all steps were inter-step corrected to the start of the dissociation step. High frequency noise was removed using Savitzky-Golay filtering and final fitting was a 1:1 global binding model to both association and dissociation.

[2] = biological target: T2, Cynomolgus Monkey VSIG4-L-His (cynomolgus monkey); assay: as above
T2 construct: ECD with His tag; also called cyVSIG4-L; cyno VSIG4-L-His
T2 chain: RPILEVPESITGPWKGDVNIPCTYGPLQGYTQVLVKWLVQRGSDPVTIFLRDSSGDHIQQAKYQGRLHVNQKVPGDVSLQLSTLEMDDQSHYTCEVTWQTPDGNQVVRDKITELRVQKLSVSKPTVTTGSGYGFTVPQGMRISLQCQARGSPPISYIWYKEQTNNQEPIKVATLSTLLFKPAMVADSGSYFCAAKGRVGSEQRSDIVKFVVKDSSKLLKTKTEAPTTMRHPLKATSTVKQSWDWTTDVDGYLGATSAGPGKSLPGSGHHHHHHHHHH
Protocol: as §1

[3] = biological target: T3, Human VSIG4-L-His (human, UniProt Q9Y279 20-283); assay: as above
T3 construct: long isoform ECD with His tag; also called hVSIG4-L
T3 sequence: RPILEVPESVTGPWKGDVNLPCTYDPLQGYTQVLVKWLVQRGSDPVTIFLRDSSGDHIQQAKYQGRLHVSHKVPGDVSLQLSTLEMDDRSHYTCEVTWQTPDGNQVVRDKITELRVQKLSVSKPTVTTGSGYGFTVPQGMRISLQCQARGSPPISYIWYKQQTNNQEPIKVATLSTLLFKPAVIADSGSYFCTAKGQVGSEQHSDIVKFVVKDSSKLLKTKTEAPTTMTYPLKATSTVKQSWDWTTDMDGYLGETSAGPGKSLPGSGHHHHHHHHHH
Protocol: as §1

[4] = biological target: T4, Human VSIG4-L-Fc (human); assay: ELISA, Fab P.E. 1:5 on coated antigen;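 note: mouse Fab P.E. samples in 1% skimmed milk PBS, bound to antigen-coated wells for 1 h at room temperature, read as absorbance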
T4 construct: also called hVSIG4-L-Fc; hVSIG4-L
Protocol: (§2) Coated microplates were blocked with dried skimmed milk at 4% in PBS. P.E. samples of the mouse unique Fab sequences were diluted 1:5 in assay buffer (1% dried skimmed milk in PBS), and 100 μl of diluted sample was added onto the coated wells and incubated for one hour at room temperature. […] Optical density (OD) at 450 nm was determined using a standard absorbance microplate reader.

[5] = biological target: T2, Cynomolgus Monkey VSIG4-L-His; assay: ELISA, Fab P.E. 1:5 on coated antigen;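 note: mouse Fab P.E. samples in 1% skimmed milk PBS, bound to antigen-coated wells for 1 h at room temperature, read as absorbance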
Protocol: as §2

[6] = biological target: T5, Human VSIG4-S-Fc (human); assay: ELISA, Fab P.E. 1:5 on coated antigen;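 note: mouse Fab P.E. samples in 1% skimmed milk PBS, bound to antigen-coated wells for 1 h at room temperature, read as absorbance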
T5 construct: short isoform ECD fused to human Fc1; also called hVSIG4-S
Protocol: as §2

[7] = biological target: T3, Human VSIG4-L-His; assay: SPR (Biacore T200), Fab P.E. 1:5 over immobilised antigen
Protocol: Off-rate values of the mouse unique Fab clones were determined using surface plasmon resonance (SPR) in Biacore™ T200 equipment (GE Healthcare, Chicago, IL). […] The immobilization was performed in accordance with a method provided by Biacore and by using the NHS/EDC kit (GE Healthcare, Chicago, IL). […] Sixty μl of Fab P.E. samples, diluted 1:5 in HBS-EP+ assay buffer (0.1 M HEPES, 1.5 M NaCl, 0.03 M EDTA and 0.5% v/v Surfactant P20), were injected and passed through the flow cells at a flow rate of 30 μl/min. After binding of the samples to VSIG4 protein, the off-rate was monitored for a period of five minutes. The flow cell surface was regenerated by a double injection of 10 μl of 1 mM glycine at pH 1.5 in 1 M sodium chloride at 30 μl/min. Off-rate analysis was done using the BIAevaluation software (GE Healthcare, Chicago, IL) and using a 1:1 dissociation kinetic fit curve.

[8] = biological target: T4, Human VSIG4-L-Fc; assay: BLI cross-blocking on hVSIG4-L-Fc, competitor 14C05 first
Protocol: (§3) All assay steps occurred at 30° C. with an acquisition rate of 5.0 Hz.

[9] = biological target: T4, Human VSIG4-L-Fc; assay: BLI cross-blocking on hVSIG4-L-Fc, competitor 12A12 first
Protocol: as §3

T4 sequence (chain, as listed by the source limits assumed): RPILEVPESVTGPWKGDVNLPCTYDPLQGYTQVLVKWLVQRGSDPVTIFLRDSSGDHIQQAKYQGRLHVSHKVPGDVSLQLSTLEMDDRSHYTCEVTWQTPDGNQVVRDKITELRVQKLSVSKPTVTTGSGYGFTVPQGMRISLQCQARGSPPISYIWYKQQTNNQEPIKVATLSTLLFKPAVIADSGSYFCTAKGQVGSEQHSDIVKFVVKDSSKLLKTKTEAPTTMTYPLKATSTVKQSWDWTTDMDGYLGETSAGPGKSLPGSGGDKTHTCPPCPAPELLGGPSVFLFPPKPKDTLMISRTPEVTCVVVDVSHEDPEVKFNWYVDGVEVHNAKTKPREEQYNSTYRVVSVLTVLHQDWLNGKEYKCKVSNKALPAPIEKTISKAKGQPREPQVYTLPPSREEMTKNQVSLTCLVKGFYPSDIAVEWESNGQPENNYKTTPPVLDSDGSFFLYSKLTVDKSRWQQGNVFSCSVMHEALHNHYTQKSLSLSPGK
T5 sequence (chain, as listed by the source limits assumed): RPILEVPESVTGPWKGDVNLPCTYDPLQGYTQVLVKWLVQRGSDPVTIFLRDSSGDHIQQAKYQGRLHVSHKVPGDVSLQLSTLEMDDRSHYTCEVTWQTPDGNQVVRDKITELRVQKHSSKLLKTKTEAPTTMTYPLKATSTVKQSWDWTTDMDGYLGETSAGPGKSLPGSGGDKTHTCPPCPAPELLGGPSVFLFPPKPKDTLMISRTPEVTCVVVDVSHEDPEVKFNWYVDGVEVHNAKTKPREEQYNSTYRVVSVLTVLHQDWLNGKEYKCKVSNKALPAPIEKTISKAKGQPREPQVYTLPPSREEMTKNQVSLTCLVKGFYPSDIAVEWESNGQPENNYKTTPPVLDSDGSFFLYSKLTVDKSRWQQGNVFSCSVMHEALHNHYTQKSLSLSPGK

Binder | Kd [1] [nM] | Kd [2] [nM] | Kd [3] [nM] | also measured
B1 | 21.5 | 6.45 | 6.83 | 
B2 | 5.16 | 1.23 | 0.965 | 
B3 | 0.505 | 0.435 | 0.475 | 
B4 |  |  |  | ELISA OD450 [4]: 4.43 OD450; ELISA OD450 [5]: 0.21 OD450; ELISA OD450 [6]: 4.3 OD450; koff [7]: 0.013 s⁻¹
B5 | 3.29 | 1.13 | 1.03 | 
B6 |  |  |  | binding signal (nm shift) [8]: 0.57 nm; binding signal (nm shift) [9]: 0.6 nm
B7 |  |  |  | ELISA OD450 [4]: 4.21 OD450; ELISA OD450 [5]: 0.05 OD450; ELISA OD450 [6]: 0.06 OD450; koff [7]: 0.0019 s⁻¹
B8 | 6.95 | 1.56 | 2.13 | 
